Reference: PMC4624786

B1: unnamed (parent)
chain 1: MSMPDAMPLPGVGEELKQAKEIEDAEKYSFMATVTKAPKKQIQFADDMQEFTKFPTKTGRRSLSRSISQSSTDSYSSAASYTDSSDDEVSPREKQQTNSKGSSNFCVKNIKQAEFGRREIEIAEQDMSALISLRKRAQGEKPLAGAKIVGCTHITAQTAVLIETLCALGAQCRWSACNIYSTQNEVAAALAEAGVAVFAWKGESEDDFWWCIDRCVNMDGWQANMILDDGGDLTHWVYKKYPNVFKKIRGIVEESVTGVHRLYQLSKAGKLCVPAMNVNDSVTKQKFDNLYCCRESILDGLKRTTDVMFGGKQVVVCGYGEVGKGCCAALKALGAIVYITEIDPICALQACMDGFRVVKLNEVIRQVDVVITCTGNKNVVTREHLDRMKNSCIVCNMGHSNTEIDVTSLRTPELTWERVRSQVDHVIWPDGKRVVLLAEGRLLNLSCSTVPTFVLSITATTQALALIELYNAPEGRYKQDVYLLPKKMDEYVASLHLPSFDAHLTELTDDQAKYLGLNKNGPFKPNYYRY
chain 2: MATPSNLGSSVLASKTKTKKKHFVAQKVKLFRASDPLLSVLMWGVNHSINELSHVQIPVMLMPDDFKAYSKIKVDNHLFNKENMPSHFKFKEYCPMVFRNLRERFGIDDQDFQNSLTRSAPLPNDSQARSGARFHTSYDKRYVIKTITSEDVAEMHNILKKYHQYIVECHGVTLLPQFLGMYRLNVDGVEIYVIVTRNVFSHRLSVYRKYDLKGSTVAREASDKEKAKELPTLKDNDFINEGQKIYIDDSNKKIFLEKLKKDVEFLAQLKLMDYSLLVGIHDVERAEQEEVECEENEGEEEGESDGAHPIGTPPDSPGNTLNSSPPLAPGEFDPNIDVYAIKCHENAPRKEVYFMAIIDILTHYDAKKKAAHAAKTVKHGAGAEISTVNPEQYSKRFLDFIGHILT
B2: unnamed (parent)
chain 1: B1 chain 1
chain 2: MASASSGPAAAGFSSLDAGAPAGTAAASGIKRATVSEGPSASVMPVKKIGHRSVDSSGETTYKKTTSSALKGAIQLGITHTVGSLSTKPERDVLMQDFYVVESIFFPSEGSNLTPAHHYNDFRFKTYAPVAFRYFRELFGIRPDDYLYSLCSEPLIELSNSGASGSLFYVSSDDEFIIKTVQHKEAEFLQKLLPGYYMNLNQNPRTLLPKFYGLYCVQAGGKNIRIVVMNNLLPRSVKMHMKYDLKGSTYKRRASQKEREKTLPTFKDLDFLQDIPDGLFLDADMYSALCKTLQRDCLVLQSFKIMDYSLLMSIHNMDHAQREPTSNDTQYSADTRRPAPQKALYSTAMESIQGEARRGGTVETEDHMGGIPARNNKGERLLLYIGIIDILQSYRFVKKLEHSWKALVHDGDTVSVHRPGFYAERFQRFMCNTVFKKIPLKPSPTKKFRSGPSFSRRSGPSGNSCTSQLMASGEHRAQVTTKAEVEPDVHLGRPDVLPQTPPLEEISEGSPVPGPSFSPVVGQPLQILNLSSTLEKLDVAESEFTH

Variants of: B1
Test: co-immunoprecipitation, Western blot quantification
Details: with partner chain of the complex shown; COS-7 cells; n = 4; parent: 100; read off a plot

Variant	percent of parent
chain 1 S64A	95 % of WT
chain 1 S66A	71 % of WT
chain 1 S68A	3 % of WT
chain 1 S70A	75 % of WT
chain 1 S71A	3 % of WT
chain 1 S74G	42 % of WT
chain 1 S76G	51 % of WT
chain 1 S77A	11 % of WT
chain 1 S80A	79 % of WT
chain 1 S84A	100 % of WT
chain 1 S85A	96 % of WT
chain 1 S90A	130 % of WT
chain 1 T72A	67 % of WT
chain 1 T82A	107 % of WT

Variants of: B2
Test: as above
Details: with partner chain of the complex shown; COS-7 cells; n = 4; parent: 100; read off a plot

Variant	percent of parent
chain 1 S64A	83 % of WT
chain 1 S66A	49 % of WT
chain 1 S68A	2 % of WT
chain 1 S70A	50 % of WT
chain 1 S71A	3 % of WT
chain 1 S74G	14 % of WT
chain 1 S76G	100 % of WT
chain 1 S77A	65 % of WT
chain 1 S80A	57 % of WT
chain 1 S84A	43 % of WT
chain 1 S85A	81 % of WT
chain 1 S90A	120 % of WT
chain 1 T72A	90 % of WT
chain 1 T82A	26 % of WT
